Values quoted from earlier work as cited in patent publication US12420014B2, “Dosing of incretin pathway drugs” (Closed Loop Medicine Ltd., priority 2023, dated 2025).

Key:
[1] = PK studies
[2] = for a given plasma level; FIG. 2B [2]
[3] = subcutaneous administration, patient study data
[4] = all adverse effects, nausea, vomiting; FIG. 13 [1]

For semaglutide, the “dependence of plasma concentration on other co-medications” value [1] is given as “do not show a significant dependence”, the “HbA1c reduction at high starting HbA1c (>8.7%) relative to lower starting levels (<7.4%)” value [2] is given as 3 fold and the “higher clearance observed in patients with Type 2 diabetes” value [3] is given as 12%. For the same substance, the “plasma level below which side effects reduce” value [4] was “less than 50 nmol/L”.
